Measured values reported in IntAct's records for PubMed 18532879.

B1: Nuclear polyadenylated RNA-binding protein NAB2 (Saccharomyces cerevisiae), P32505 (parent)
chain: MSQEQYTENLKVIVAEKLAGIPNFNEDIKYVAEYIVLLIVNGGTVESVVDELASLFDSVSRDTLANVVQTAFFALEALQQGESAENIVSKIRMMNAQSLGQSDIAQQQQQQQQQQQPDIAQQQPQQQPQQQPQQQPQQQPQQQPQQQPQQQPQQQPQLQPLQPQLGTQNAMQTDAPATPSPISAFSGVVNAAAPPQFAPVDNSQRFTQRGGGAVGKNRRGGRGGNRGGRNNNSTRFNPLAKALGMAGESNMNFTPTKKEGRCRLFPHCPLGRSCPHAHPTKVCNEYPNCPKPPGTCEFLHPNEDEELMKEMERTREEFQKRKADLLAAKRKPVQTGIVLCKFGALCSNPSCPFGHPTPANEDAKVIDLMWCDKNLTCDNPECRKAHSSLSKIKEVKPISQKKAAPPPVEKSLEQCKFGTHCTNKRCKYRHARSHIMCREGANCTRIDCLFGHPINEDCRFGVNCKNIYCLFRHPPGRVLPEKKGAAPNSNVPTNERPFALPENAIIENAPPQTSFTHQEQDTEMN
partner: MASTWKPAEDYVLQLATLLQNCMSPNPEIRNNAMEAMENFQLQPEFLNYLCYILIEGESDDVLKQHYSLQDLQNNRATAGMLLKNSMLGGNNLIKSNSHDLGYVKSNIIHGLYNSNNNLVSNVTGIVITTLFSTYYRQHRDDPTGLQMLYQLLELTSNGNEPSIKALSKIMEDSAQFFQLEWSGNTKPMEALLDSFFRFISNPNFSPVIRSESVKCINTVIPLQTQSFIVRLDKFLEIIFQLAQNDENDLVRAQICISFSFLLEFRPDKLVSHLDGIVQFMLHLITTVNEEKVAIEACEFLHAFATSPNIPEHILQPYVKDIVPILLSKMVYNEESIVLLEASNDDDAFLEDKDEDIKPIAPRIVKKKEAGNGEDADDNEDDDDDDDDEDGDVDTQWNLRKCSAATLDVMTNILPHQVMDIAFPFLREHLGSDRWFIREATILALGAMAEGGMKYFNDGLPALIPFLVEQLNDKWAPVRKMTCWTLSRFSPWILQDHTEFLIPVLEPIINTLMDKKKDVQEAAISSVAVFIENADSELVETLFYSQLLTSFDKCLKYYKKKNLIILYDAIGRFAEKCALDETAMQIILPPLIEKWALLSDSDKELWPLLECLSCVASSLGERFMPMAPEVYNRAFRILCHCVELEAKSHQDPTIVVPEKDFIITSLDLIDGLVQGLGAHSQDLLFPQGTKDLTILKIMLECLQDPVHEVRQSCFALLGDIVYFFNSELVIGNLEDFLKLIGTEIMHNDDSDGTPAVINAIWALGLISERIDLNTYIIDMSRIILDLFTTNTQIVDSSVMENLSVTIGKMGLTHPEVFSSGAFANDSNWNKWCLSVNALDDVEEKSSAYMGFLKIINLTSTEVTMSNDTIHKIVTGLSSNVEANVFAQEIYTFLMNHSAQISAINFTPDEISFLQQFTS

Variants of: B1
Settings: with imb2_yeast KAP104, P38217

Row | Variant | effect of a mutation on the interaction
1 | MSQEQYTENLKVIVAEKLAGIPNFNEDIKYVAEYIVLLIVNGGTVESVVDELASLFDSVSRDTLANVVQTAFFALEALQQGESAENIVSKIRMMNAQSLGQSDIAQQQQQQQQQQQPDIAQQQPQQQPQQQPQQQPQQQPQQQPQQQPQQQPQQQPQLQPLQPQLGTQNAMQTDAPATPSPISAFSGVVNAAAPPQFAPVDNSQRFTQRGGGAVGAAAAGGRGGNRGGRNNNSTRFNPLAKALGMAGESNMNFTPTKKEGRCRLFPHCPLGRSCPHAHPTKVCNEYPNCPKPPGTCEFLHPNEDEELMKEMERTREEFQKRKADLLAAKRKPVQTGIVLCKFGALCSNPSCPFGHPTPANEDAKVIDLMWCDKNLTCDNPECRKAHSSLSKIKEVKPISQKKAAPPPVEKSLEQCKFGTHCTNKRCKYRHARSHIMCREGANCTRIDCLFGHPINEDCRFGVNCKNIYCLFRHPPGRVLPEKKGAAPNSNVPTNERPFALPENAIIENAPPQTSFTHQEQDTEMN [K216A;N217A;R218A;R219A] | disrupting interaction
2 | MSQEQYTENLKVIVAEKLAGIPNFNEDIKYVAEYIVLLIVNGGTVESVVDELASLFDSVSRDTLANVVQTAFFALEALQQGESAENIVSKIRMMNAQSLGQSDIAQQQQQQQQQQQPDIAQQQPQQQPQQQPQQQPQQQPQQQPQQQPQQQPQQQPQLQPLQPQLGTQNAMQTDAPATPSPISAFSGVVNAAAPPQFAPVDNSQRFTQRGGGAVGKNAAGGAGGNAGGANNNSTRFNPLAKALGMAGESNMNFTPTKKEGRCRLFPHCPLGRSCPHAHPTKVCNEYPNCPKPPGTCEFLHPNEDEELMKEMERTREEFQKRKADLLAAKRKPVQTGIVLCKFGALCSNPSCPFGHPTPANEDAKVIDLMWCDKNLTCDNPECRKAHSSLSKIKEVKPISQKKAAPPPVEKSLEQCKFGTHCTNKRCKYRHARSHIMCREGANCTRIDCLFGHPINEDCRFGVNCKNIYCLFRHPPGRVLPEKKGAAPNSNVPTNERPFALPENAIIENAPPQTSFTHQEQDTEMN [R218A;R219A;R222A;R226A;R229A] | disrupting interaction strength
3 | MSQEQYTENLKVIVAEKLAGIPNFNEDIKYVAEYIVLLIVNGGTVESVVDELASLFDSVSRDTLANVVQTAFFALEALQQGESAENIVSKIRMMNAQSLGQSDIAQQQQQQQQQQQPDIAQQQPQQQPQQQPQQQPQQQPQQQPQQQPQQQPQQQPQLQPLQPQLGTQNAMQTDAPATPSPISAFSGVVNAAAPPQFAPVDNSQRFTQRGGGAVGKNRRGGAGGNRGGRNNNSTRFNAAAKALGMAGESNMNFTPTKKEGRCRLFPHCPLGRSCPHAHPTKVCNEYPNCPKPPGTCEFLHPNEDEELMKEMERTREEFQKRKADLLAAKRKPVQTGIVLCKFGALCSNPSCPFGHPTPANEDAKVIDLMWCDKNLTCDNPECRKAHSSLSKIKEVKPISQKKAAPPPVEKSLEQCKFGTHCTNKRCKYRHARSHIMCREGANCTRIDCLFGHPINEDCRFGVNCKNIYCLFRHPPGRVLPEKKGAAPNSNVPTNERPFALPENAIIENAPPQTSFTHQEQDTEMN [R222A;P238A;L239A] | disrupting interaction

Now from value to variant:

Row | effect of a mutation on the interaction | Variant
4 | disrupting interaction | MSQEQYTENLKVIVAEKLAGIPNFNEDIKYVAEYIVLLIVNGGTVESVVDELASLFDSVSRDTLANVVQTAFFALEALQQGESAENIVSKIRMMNAQSLGQSDIAQQQQQQQQQQQPDIAQQQPQQQPQQQPQQQPQQQPQQQPQQQPQQQPQQQPQLQPLQPQLGTQNAMQTDAPATPSPISAFSGVVNAAAPPQFAPVDNSQRFTQRGGGAVGKNRRGGRGGNRGGRNNNSTAFNAAAKALGMAGESNMNFTPTKKEGRCRLFPHCPLGRSCPHAHPTKVCNEYPNCPKPPGTCEFLHPNEDEELMKEMERTREEFQKRKADLLAAKRKPVQTGIVLCKFGALCSNPSCPFGHPTPANEDAKVIDLMWCDKNLTCDNPECRKAHSSLSKIKEVKPISQKKAAPPPVEKSLEQCKFGTHCTNKRCKYRHARSHIMCREGANCTRIDCLFGHPINEDCRFGVNCKNIYCLFRHPPGRVLPEKKGAAPNSNVPTNERPFALPENAIIENAPPQTSFTHQEQDTEMN [R235A;P238A;L239A]
5 | disrupting interaction | MSQEQYTENLKVIVAEKLAGIPNFNEDIKYVAEYIVLLIVNGGTVESVVDELASLFDSVSRDTLANVVQTAFFALEALQQGESAENIVSKIRMMNAQSLGQSDIAQQQQQQQQQQQPDIAQQQPQQQPQQQPQQQPQQQPQQQPQQQPQQQPQQQPQLQPLQPQLGTQNAMQTDAPATPSPISAFSGVVNAAAPPQFAPVDNSQRFTQRGGGAVGKNRRGGRGGNRGGRNNNSTAFNPLAKALGMAGESNMNFTPTKKEGRCRLFPHCPLGRSCPHAHPTKVCNEYPNCPKPPGTCEFLHPNEDEELMKEMERTREEFQKRKADLLAAKRKPVQTGIVLCKFGALCSNPSCPFGHPTPANEDAKVIDLMWCDKNLTCDNPECRKAHSSLSKIKEVKPISQKKAAPPPVEKSLEQCKFGTHCTNKRCKYRHARSHIMCREGANCTRIDCLFGHPINEDCRFGVNCKNIYCLFRHPPGRVLPEKKGAAPNSNVPTNERPFALPENAIIENAPPQTSFTHQEQDTEMN [R235A]
